Columns and labels:
[1] = molecular target: biotinylated bovine serum albumin (bovine) (UniProt P02769); experiment: SPR angular scanning on Al/Al2O3 film, streptavidin 500 µg/mL in 1xPBS buffer
[2] = molecular target: biotinylated bovine serum albumin (bovine) (UniProt P02769); experiment: SPR angular scanning on Al/Al2O3 film, streptavidin 500 µg/mL spiked in undiluted human serum, serum-only control subtracted
[3] = molecular target: poly-L-lysine; experiment: SPR imaging, PLL-coated Al microarray, chemokines in PBS buffer; difference against CXCL10 as reference
[4] = molecular target: poly-L-lysine; experiment: SPR imaging, PLL-coated Al microarray, chemokines spiked in artificial urine matrix; difference against CXCL10 as reference

Sequence of biotinylated bovine serum albumin (bovine) (P02769 25-607 limits assumed, form in doubt): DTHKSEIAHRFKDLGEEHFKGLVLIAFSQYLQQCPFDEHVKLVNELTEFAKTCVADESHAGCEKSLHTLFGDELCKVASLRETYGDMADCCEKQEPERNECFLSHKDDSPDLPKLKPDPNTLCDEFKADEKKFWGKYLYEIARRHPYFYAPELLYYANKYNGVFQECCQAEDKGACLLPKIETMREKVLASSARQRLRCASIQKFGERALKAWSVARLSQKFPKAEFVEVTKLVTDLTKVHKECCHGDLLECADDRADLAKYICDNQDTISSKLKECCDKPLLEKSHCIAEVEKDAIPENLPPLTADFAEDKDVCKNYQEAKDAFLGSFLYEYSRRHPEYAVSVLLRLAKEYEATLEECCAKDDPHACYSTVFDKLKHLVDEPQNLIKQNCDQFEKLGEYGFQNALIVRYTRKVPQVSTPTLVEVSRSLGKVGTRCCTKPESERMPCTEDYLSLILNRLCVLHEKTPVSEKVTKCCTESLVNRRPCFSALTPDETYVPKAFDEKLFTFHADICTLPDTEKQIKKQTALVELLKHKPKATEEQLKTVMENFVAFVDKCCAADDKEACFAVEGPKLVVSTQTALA

Row | Substance | specific binding signal (SPR angular shift) [1] [°] | specific binding signal (SPR angular shift) [2] [°] | relative difference in response between CXCL10 and CXCL8 (kinetic reflectivity shift) [3] [%] | relative difference in response between CXCL10 and CXCL8 (kinetic reflectivity shift) [4] [%]
1 | streptavidin (from UniProt P22629 37-163) | 0.21 | 0.17 |  | 
2 | CXCL8 (from UniProt P10145 29-99) (ligand) |  |  | 0.25 | 0.68

Reference: patent US20220397533A1
